Experimental data reported in patent US9005963B2, “Amino acid sequences directed against cellular receptors for viruses and bacteria” (Ablynx N.V., priority 2008, dated 2015).
Marks after values point to notes of the source that are not given here.

B1: 238D2-20GS-238C5: bivalent Nanobody, SEQ ID NO: 265 (protein)
chain: EVQLVESGGGLVQTGGSLRLSCAASGFTFSSYAMSWVRQAPGKGLEWVSGIKSSGDSTRYAGSVKGRFTISRDNAKNMLYLQMYSLKPEDTAVYYCAKSRVSRTGLYTYDNRGQGTQVTVSSGGGGSGGGGSGGGGSGGGGSEVQLMESGGGLVQAGGSLRLACAASGFTFEDYAIGWFRKAPGKEREGVSCISGSDGSTTYADSVKGRFTISTDNAKNTVYLEMNSLKPEDTAVYYCAQQYGVGGRVVCPGPYEYDVWGQGTQVTVSS
modifications: Nanobodies
B2: 237D2: selected Nanobody, SEQ ID NO: 241 (protein)
VHH: EVQLVESGGGLVQPGGSLRLSCAASGFTFDDYAMSWVRQAPGKGLEWVSAISWNGGSTDYADSVKGRFTISRDNAKNTLYLQMNSLKSEDTAEYYCARDQGPFYSGTYYYTRQYGYRGQGTQVTVSS
modifications: Nanobodies
B3: [^125I]-238D4: 125I-labeled NANOBODY 238D4 for competition binding studies (protein)
VHH: EVQLMESGGGLVQAGGSLRLSCAASGRTFNNYAMGWFRRAPGKEREFVAAITRSGVRSGVSAIYGDSVKDRFTISRDNAKNTLYLQMNSLKPEDTAVYTCAASAIGSGALRRFEYDYSGQGTQVTVSS
B4: 238D2-20GS-238B10: bivalent Nanobody, SEQ ID NO: 266 (protein)
chain: EVQLVESGGGLVQTGGSLRLSCAASGFTFSSYAMSWVRQAPGKGLEWVSGIKSSGDSTRYAGSVKGRFTISRDNAKNMLYLQMYSLKPEDTAVYYCAKSRVSRTGLYTYDNRGQGTQVTVSSGGGGSGGGGSGGGGSGGGGSEVQLVESGGGFVQAGGSLRLSCETSGRPLLGYTIAWFRQVPGKEREFVAYHRWSDGANLYADSVKGRFTISGHNAKNTVSLQMNSLKPEDTAVYYCAAARMTTSNDKEYLYWGQGTQVTVSS
modifications: Nanobodies

Tests used:
CXCR4 [1] = biological target: T1, CXCR4 (Homo sapiens, UniProt P61073); assay: Competition binding with [125I]-CXCL12 on membranes from HEK293T cells transiently expressing CXCR4; design: expressed in transfected cells; host or cells: HEK293T, transient (pcDNA3.1-CXCR4); displacement of specifically bound [125I]-CXCL12 (in words): dose or concentration left out as unconfirmed; conditions: for pKi ([125I]-CXCL12): HEK293T-CXCR4 membranes; for Rel. potency, relative to monovalent 238D2: [125I]-CXCL12 displacement affinity, fold; for Displacem. (%) of [125I]-CXCL12: maximal displacement, a: no significant displacement at 0.5 μM, b/c(B-6): maximum not reached, displacement at 0.5 μM
T1 sequence (P61073 whole entry): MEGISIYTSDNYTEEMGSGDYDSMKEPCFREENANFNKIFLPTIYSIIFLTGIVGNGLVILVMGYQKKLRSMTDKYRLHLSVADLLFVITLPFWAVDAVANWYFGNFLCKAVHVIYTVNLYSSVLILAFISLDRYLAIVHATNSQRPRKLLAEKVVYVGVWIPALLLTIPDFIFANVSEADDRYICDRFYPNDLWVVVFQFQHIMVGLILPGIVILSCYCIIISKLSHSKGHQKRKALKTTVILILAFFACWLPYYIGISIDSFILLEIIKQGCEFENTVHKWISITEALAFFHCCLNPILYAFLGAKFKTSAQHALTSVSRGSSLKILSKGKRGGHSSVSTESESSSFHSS
Description: (§1) Membranes from HEK293T cells transiently expressing CXCR3 or CXCR4 were prepared 48 h after transfection as follows. Cells were washed and scraped from the cell culture dishes with ice-cold PBS containing 1 mm EDTA. The scraped cells were pelleted at 1500×g for 10 min at 4° C. The pellet was washed and then resuspended in ice-cold membrane buffer (15 mM Tris, pH 7.5, 1 mM EGTA, 0.3 mM EDTA, and 2 mM MgCl2). The cell suspension was homogenized by 10 strokes at 1200 rpm using a Teflon-glass homogenizer and rotor and further subjected to three freeze-thaw cycles using liquid nitrogen. Membranes were separated by centrifugation at 40,000 g for 25 min at 4° C. The membrane pellet was washed and resuspended in ice-cold Tris-sucrose buffer (20 mM Tris, pH 7.4, and 250 mM sucrose) and frozen in liquid nitrogen. The total protein was determined using a Bradford assay (Bio-Rad).
Membranes were then harvested over polyethylenimine (0.5%)-treated Whatman GF/C filter plates and washed three times with ice cold binding buffer containing 500 mM NaCl. Plates were counted by liquid scintillation. […]

CXCR4 [2] = biological target: T1, CXCR4; assay: Competition binding with [125I]-238D2 on membranes from HEK293T cells transiently expressing CXCR4; design: expressed in transfected cells; host or cells: HEK293T, transient (pcDNA3.1-CXCR4)
Description: as §1
(§2) Membranes were then harvested over polyethylenimine (0.5%)-treated Whatman GF/C filter plates and washed three times with ice cold binding buffer containing 500 mM NaCl. Plates were counted by liquid scintillation.

CXCR4 [3] = biological target: T1, CXCR4; assay: Competition binding with [125I]-238D4 on membranes from HEK293T cells transiently expressing CXCR4; design: expressed in transfected cells; host or cells: HEK293T, transient (pcDNA3.1-CXCR4)
Description: as §1, §2

CXCR4 [4] = biological target: T1, CXCR4; assay: Binding of 125I-labeled Nanobodies to membranes from HEK293T cells expressing CXCR4 compared to CXCR3; design: expressed in transfected cells; host or cells: HEK293T, transient (pcDNA3.1-CXCR4)
Description: as §1
Periplasmas (1:10) or ligands were pre-incubated with membranes in binding buffer (50 mM HEPES (pH 7.4), 1 mM CaCl2, 5 mM MgCl2, 100 mM NaCl, 0.5% bovine serum albumin) supplemented with 0.5% BSA for 1 h at 22° C. before the addition of [^125I]-CXCL12 (40 pM) or [^125I]-238D2 (3 nM) or [^125I]-238D4 (3 nM) for additional 2 h at 22° C. […] Plates were counted by liquid scintillation.

[5] = 238C5 only at high concentrations (≧100 nM)
[6] = maximal displacement, a: no significant displacement at 0.5 μM, b: displacement at 0.5 μM

Molecule	pKi ([125I]-CXCL12) (CXCR4 [1])	Rel. potency, relative to monovalent 238D2 (CXCR4 [1])	Displacem. (%) of [125I]-CXCL12 (CXCR4 [1])	displacement of specifically bound [125I]-CXCL12 (in words) (CXCR4 [1]; purified Nanobodies)	displacement of [125I]-238D2 (in words) (CXCR4 [2]; [5])	pKi ([125I]-238D2) (CXCR4 [2]; HEK293T-CXCR4 membranes)	Displacem. (%) of [125I]-238D2 (CXCR4 [2]; [6])	displacement of [125I]-238D4 (in words) (CXCR4 [3]; [5])	pKi ([125I]-238D4) (CXCR4 [3]; HEK293T-CXCR4 membranes)	Displacem. (%) of [125I]-238D4 (CXCR4 [3]; [6])	binding to CXCR4 membranes compared to CXCR3 membranes (CXCR4 [4])
B1	7.35 ± 0.07	0.18^a	110 ± 2%								
B2	<6.3		0^a %	unable to displace	unable to inhibit	<6.3	0^a %	unable to inhibit	<6.3	0^a %	
B3											selectively bound
B4	<7.00	<0.1^a	43 ± 11^c %								
